Measured values published in patent US20250382376A1 (FUDAN UNIVERSITY, published 2025).

T1: extracellular domain of human CD73 protein, C-terminus polyhistidine-tagged (human, UniProt P21589 27-547)
T1 construct: also the immunogen; also called CD73-ECD; human CD73-ECD
T1 sequence: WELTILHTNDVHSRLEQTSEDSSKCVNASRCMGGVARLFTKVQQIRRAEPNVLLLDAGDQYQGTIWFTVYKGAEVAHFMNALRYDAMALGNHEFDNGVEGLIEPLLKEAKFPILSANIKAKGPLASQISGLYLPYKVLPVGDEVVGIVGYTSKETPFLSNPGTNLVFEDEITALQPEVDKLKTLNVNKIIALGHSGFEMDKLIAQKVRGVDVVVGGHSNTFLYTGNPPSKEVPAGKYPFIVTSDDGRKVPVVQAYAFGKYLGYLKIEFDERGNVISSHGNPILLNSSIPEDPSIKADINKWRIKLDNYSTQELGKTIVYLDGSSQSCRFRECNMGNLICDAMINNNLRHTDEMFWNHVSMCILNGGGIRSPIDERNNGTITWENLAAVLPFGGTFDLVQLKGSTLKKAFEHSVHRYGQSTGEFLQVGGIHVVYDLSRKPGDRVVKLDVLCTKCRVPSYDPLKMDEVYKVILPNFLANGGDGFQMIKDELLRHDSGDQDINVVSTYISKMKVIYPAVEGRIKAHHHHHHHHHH


Legend:
[1] = molecular target: T1, extracellular domain of human CD73 …; experiment: ELISA on CD73-ECD, 4 µL supernatant of antibody expression, first of two readings; PBS 0.19, 0.18
Procedure: (§1) The CD73 protein extracellular region (CD73-ECD) was diluted to 1 μg/mL using the coating solution, and an ELISA plate was coated at 100 μL/well at 4° C. overnight. Excess antigens were washed away, and the plate was blocked with 1% BSA at room temperature for 2 hours. Then, 5-fold gradient dilutions of each monoclonal antibody were added at 100 μL/well and incubated at room temperature for 1 hour. Unbound antibodies were washed away, and an appropriate concentration of Staphylococcal protein A labeled with horseradish peroxidase was added at 100 μL/well and incubated at room temperature for 0.5 hours. Unbound secondary antibodies were washed away, and TMB color development solution was added to react for about 15 minutes. 1M HCL was added at 50 µL/well to terminate the color development reaction, and then the absorbance was measured at 450 nm and the data was analyzed.
(§2) CD73 antigen ELISA binding affinity test was performed according to the method of Example 3.

[2] = molecular target: T1, extracellular domain of human CD73 …; experiment: ELISA on CD73-ECD, 0.8 µL supernatant of antibody expression, first of two readings; PBS 0.19, 0.18
Procedure: as §1, §2

[3] = molecular target: T1, extracellular domain of human CD73 …; experiment: ELISA on CD73-ECD, 4 µL supernatant of antibody expression, second of two readings; PBS 0.19, 0.18
[4] = molecular target: T1, extracellular domain of human CD73 …; experiment: ELISA on CD73-ECD, 0.8 µL supernatant of antibody expression, second of two readings; PBS 0.19, 0.18
Procedure: as §1, §2

[5] = molecular target: T1, extracellular domain of human CD73 …; experiment: ELISA on CD73-ECD, 100 µL supernatant of antibody expression, first of two readings; PBS 0.19, 0.18
Procedure: as §1, §2

[6] = molecular target: T1, extracellular domain of human CD73 …; experiment: ELISA, coated CD73-ECD, method of Example 3
Procedure: as §1
(§3) Based on the above mutants, 5-E11ASCS was designed and prepared, and the CD73 antigen ELISA binding affinity test was performed according to the method of Example 3.

[7] = molecular target: T1, extracellular domain of human CD73 …; experiment: ELISA on CD73-ECD, 20 µL supernatant of antibody expression, first of two readings; PBS 0.19, 0.18
Procedure: as §1, §2

[8] = molecular target: T1, extracellular domain of human CD73 …; experiment: ELISA on CD73-ECD, 100 µL supernatant of antibody expression, second of two readings; PBS 0.19, 0.18
[9] = molecular target: T1, extracellular domain of human CD73 …; experiment: ELISA on coated human CD73-ECD (the text rounds this value to 0.05 µg/mL)
Procedure: as §1, §3

[10] = molecular target: T1, extracellular domain of human CD73 …; experiment: SPR as the filing names it (method of Example 2, ForteBio OCTET R2)
Procedure: Surface plasmon resonance (SPR) assay: Protein A sensor was used to immobilize the antibodies, with an immobilization height of about 1.5 nM. […] Affinity detection: equilibrium for 60 s, binding for 180 s, dissociation for 180 s, at a detection temperature of 25° C. Kinetic characterization analysis was performed using the ForteBio OCTET R2 system.
The affinity of the humanized antibody to the antigen was detected by the surface plasmon resonance (SPR) assay method in Example 2.

Row | Binder | ELISA reading (not named on the sheet) [1] | ELISA reading (not named on the sheet) [2] | ELISA reading (not named on the sheet) [3] | ELISA reading (not named on the sheet) [4] | ELISA reading (not named on the sheet) [5] | EC50 [6] [µg/mL] | ELISA reading (not named on the sheet) [7] | ELISA reading (not named on the sheet) [8] | EC50 [9] [µg/mL] | Kd [10] [nM]
1 | chimeric nanobody 5-E11 (Fc fusion, Human-alpaca chimeric antibody (VHH on hIgG1 Fc); Only the VHH is tied to the tested molecule; also called original antibody 5-E11) VHH: ALQLVESGGGLVQPGGSLRLSCEVSGFTLDYYNIGWFRQAPGKEREGVSCSSNSGGSTYYADSVKGRFTISRDNAKNTVYLQMNSLKPEDTGVYYCAAYRGWHPSLDARVYDYWGQGTEVTVSS | 4.23 | 4.18 | 4.17 | 4.16 | 4.33 | 0.05 | 4.19 | 4.23 | 0.0536 | –
2 | chimeric nanobody 3-D7 (Fc fusion, Human-alpaca chimeric antibody (VHH on hIgG1 Fc); Only the VHH is tied to the tested molecule; 37-39 exist for 3-D7-FC1/FC2/FC3; also called original antibody 3-D7) VHH: QRQLVESGGGLVQPGGSLRLSCAASGFLLDYYVIGWFRQAPGKEREGVSCISGSDRSTYYADSVKGRFTISRDNAKNTVYLQMNSLKPEDTAVYFCAADPSPVTVQAMCLPRFPVPYWGQGTQVTVST | – | – | – | – | – | – | – | – | – | 0.472
